# Measurements published in patent US11707511B2, “Vaccine compositions and methods of using the same” (The Board of Supervisors of Louisiana State University and …, priority 2017, dated 2023).
# Entries after “also recorded” stand apart in the source; their conditions may differ.
# B1: 2B10C1: IgG1 mAb of hybridoma 2B10C1, specific for Met6 peptide; VH SEQ ID NO: 60, VL SEQ ID NO: 62 (antibody, V domains shown)
# VH: MGWSYIILFLLATATRVHSQVQLQQPGAEVVRPGASVKVSCKASGYTVSSYWMSWVKQRPEQGLEWIGRIDPYDSETHYNQKFKDKAILTVDKSSSTAYMQLSSLTSEDSAVYYCARTAASFDYWGQGTTLTVSS
# VL: MKLPVRLLVLMFWIPASSSDVVMTQTPLSLPVSLGDQASISCRSSQSLVHSNGNSYLHWYLQKPGQSPKLLIYKVSNRFSGVPDRFSGSGSGTDFTLNISRVEAEDLGVYFCSQSTHVPFTFGSGTKLEIK
# B2: 7H6A2: IgG2b mAb of hybridoma 7H6A2, specific for Met6 peptide (antibody)
# heavy: QIQLVQSGPELKKPGETVKISCKASGYTFTDFSMHWVKQAPGKGLKWMGWINTETVEPTYADDFKGRFAFSLETSASTAYLQINNLKNEDTATYFCSRVSYDGYYGDFAMDYWSQGTSVTVSSAKTTAPSVYPLAPVCGDTTGSSVTLGCLVKGYFPEPVTLTWNSGSLSSGVHTFPAVLQSDLYTLSSSVTVTSSTWPSQSITCNVAHPASSTKVDKKIEPRGPTIKPCPPCKCPAPNLLGGPSVFIFPPKIKDVLMISLSPIVTCVVVDVSEDDPDVQISWFVNNVEVHTAQTQTHREDYNSTLRVVSALPIQHQDWMSGKEFKCKVNNKDLPAPIERTISKPKGSVRAPQVYVLPPPEEEMTKKQVTLTCMVTDFMPEDIYVEWTNNGKTELNYKNTEPVLDSDGSYFMYSKLRVEKKNWVERNSYSCSVVHEGLHNHHTTKSFSRTPGK
# light: DIQMTQTTSSLSASLGDRVTISCRASQDISNYLNWYQQKPDGTVKLLIYYTSRLHSGVPSRFSGSGSGTDYSLTISNLEQEDIATYFCQQGNTLPWTFGGGTKLEIKRADAAPTVSIFPPSSEQLTSGGASVVCFLNNFYPKDINVKWKIDGSERQNGVLNSWTDQDSKDSTYSMSSTLTLTKDEYERHNSYTCEATHKTSTSPIVKSFNRNEC
# Experiments:
# [1] = Induction of specific anti-peptide antibody responses in immunized mice; type: in vivo; details: BALB/c mice; peptide-pulsed DC; data not shown
# From the text: (§1) To perform rapid throughput evaluation of peptide vaccine candidates, immunizations were done by use of the similar antigen-pulsed DC based vaccine strategy with modification by totally removing CFA from vaccine formula. Fba peptide was used as positive control.
# The double chimeric peptide conjugate vaccines have been tested for their abilities to induce specific anti-peptide antibodies and protective immunity against the disease caused by C. albicans. […] The enhancement in vaccine efficacy was evidenced by both increased survival and reduced or non-detectable fungal burden (colony forming units, CFUs) in kidneys of animals.
# C. albicans = assay: Active immunization with peptide-pulsed dendritic cells, disseminated candidiasis caused by C. albicans in mice; type: in vivo, Candida albicans
# Protocol: (§2) Active Immunizations with peptide pulsed dendritic cells. […] It allows us to perform rapid throughput evaluation of candidate short peptides. When protective double universal peptide conjugate(s) become identified by this study, immunization approaches suitable for human use will be applied in further studies. All active vaccinations were conducted as previously described (6,7,9). DCs were pulsed in vitro with universal peptide as described before with minor modification by totally removing CFA for last booster (6). Briefly, DCs in culture were pulsed with the peptide antigen (1 μM) on day 6. On day 7, PGE2 (10^-7M) was added along with LPS (2 μg/ml, Sigma) for 24 h to induce DC maturation. On day 9, antigen-pulsed DCs were washed extensively and […] in 200 μl DPBS were given by intraperitoneal (i.p.) route as the priming dose to mice. The mice were boosted i.p. at day 14 and day 28 with fresh antigen-pulsed DCs without adjuvant.
# Table 2 lists universal peptide vaccines that induced protection against disseminated candidiasis caused by C. albicans in mice. The universal peptide vaccines listed in Table 1 are expressed at high homology by all analyzed medically important Candida species in addition to C. albicans (see details at Table 2). By dendritic cell (DC) based immunization approach as described herein, each of the universal peptide vaccines was able to protect mice against disseminated candidiasis caused by C. albicans, with the survival rate 80-100% up to 80-120 days post challenge.
# as §1
# [2] = tested on: C. tropicalis (ATCC 20336); assay: Peptide-vaccinated mice challenged with lethal dose of C. tropicalis; type: in vivo
# Protocol: as §2
# Peptide-vaccinated mice were challenged with lethal dose of live C. tropicalis cells (ATCC 20336; i.v. challenge dose: 1×10^6/mouse).
# [3] = tested on: medically important Candida spp; assay: DC-based immunization with universal peptides, coverage of medically important Candida spp; type: in vivo; details: in words
# From the text: Novel universal peptides as described herein can be excellent peptide vaccines against C. ablicans infection.
# C. albicans 3153A = assay: Passive transfer of mAbs or mAb cocktails i.p. before lethal i.v. challenge, mouse model of human disseminated candidiasis; type: in vivo, Candida albicans; details: Table 14; for Protection of adsorbed mAb: mAb removed by absorption with Candida cells before transfer; for Protection / Protection (grade word): single mAb, C. albicans
# Protocol: Passive transfer of MAbs by intraperitoneal (i.p.) route. The preventive effect of peptide-specific mAbs listed in Table 3 and Table 4 in naïve mice was examined by passive transfer experiments. […] For testing, mice received 0.5 ml of each mAb or 1 ml of two mAbs in combination (0.5 ml of each) intraperitoneally. […] The negative control materials tested in mice were single mAb or DPBS. Control mice received 0.5 ml of the DPBS diluents or single mAb treatment. For each condition, 6- to 8-week-old female BALB/c mice (NCI) were given 0.5 ml of test mAb, or 1 ml two mAb cocktails or control materials intraperitoneally, followed 4 h later by 0.1 ml intravenously of defined lethal dose of yeast cells per milliliter of DPBS. Mice were divided into groups with five mice each and three independent experiments were carried out. In some experiments, mice were given the same dose of mAbs or control materials on every other day post-challenge for two weeks, as compared to the protective efficacy of mAb in combinations. All mice were sacrificed on day 50. For animal groups that were challenged non-albicans candida species, determined optimal challenge doses were applied for each candida strain.
# The hybridoma clones that produce the universal peptide specific mAbs listed above were generated from mice vaccinated with peptide-pulsed dendritic cell (DC) preparation as described previously (6). The isotype of mAb was determined with a Mouse Monoclonal Antibody Isotyping Kit (Pierce, USA). […] In detail, BALB/c mice were given an i.p dose of each mAb four hours before hematogenous challenged with a lethal dose of C. albicans3153A cells. […] Importantly, passive protection was prevented by removal of the mAbs by absorption with Candida cells before transfer, which provided strong additional evidence for the protection being due to the mAb.
# The three cell wall proteins were selected because of expression during human candidiasis and cell wall association, and included fructose-bisphosphate aldolase (Fba); methyltetrahydropteroyltriglutamate-homocysteine methyltransferase (Met6); hyphal wall protein-1 (Hwp1). The hybridoma clones listed at Table 5, which produce the peptide specific mAbs, were generated from mice vaccinated with peptide-pulsed dendritic cell (DC) preparation as described previously (6). The isotype of mAb was determined with a Mouse Monoclonal Antibody Isotyping Kit (Pierce, USA). […] Importantly, passive protection was prevented by removal of the mAbs by absorption with Candida cells before transfer, which provided strong additional evidence for the protection being due to the mAb).
# The preventive effect of each universal peptide-specific mAb was examined by passive transfer experiments. […] For testing, 5 mice of each tested group received 0.5 ml of each mAb intraperitoneally. The negative control materials tested in mice were mAbs absorbed with C. albicans yeast cells (3153A) and DPBS. Control mice received 0.5 ml of the DPBS diluents or adsorbed mAb solution. For each condition, 6- to 8-week-old female BALB/c mice (NCI) were given 0.5 ml of test mAb, or control materials intraperitoneally, followed 4 h later by 0.1 ml intravenously of a suspension containing lethal dose of Candida cells per milliliter of DPBS. Mice were divided into groups with five mice each and three independent experiments were carried out. We have developed neutropenic murine models of disseminated infection by C. glabrata, C. tropicalis and C. parapsilosis. To induce neutropenia, naïve mice received a 200 mg/kg dose of cyclophosphamide (CY) by i.p. on day −3. Prolonged neutropenia were maintained for 30-50 days by giving each animal a 150 mg/kg dose of CY by i.p. every 10 days after infection.
# C. auris AR-0386 = assay: Passive transfer of mAbs or two mAbs in combination in A/J mouse model of invasive C. auris infection; type: in vivo, Candida auris; details: Table 19; A/J strain mice
# Protocol: A. Complement protein C5-defecient A/J mice were treated with one of the five mAb or with DPBS as a vehicle control. The following day, mice were challenged with 1×10^8 C. auris cells/100 ul DPBS dose per mouse. […] B. Fungal burdens in the kidneys (top), heard (center), and brain (bottom).
# Identified protective mAbs were obtained by use of standard hybridoma technique and purified by use of protein A/G. A/J mice were given an i.p. dose of either single mAb or two mAbs in combination 24 hours before hematogensous challenge with a lethal dose (2×108) of C. auris AR-0386 live cells. Mice received either 9G2F5 alone or 6H1G8 alone or 9F2G5 and 3H7E3 in combination had 40% survival rate respectively, with prolonged survival as compared to control animals that received DPBS buffer control.
# Evaluation and validation of a panel of peptide-specific monoclonal antibodies (mAbs) as a passive immunization strategy protect against invasive C. auris infection in established A/J mouse model of human disease.
# The monoclonal antibodies used in this experiment were: • 6H1G8 (IgG2b), α-Hwp1 (Hyphal wall protein) • 3E2G2 (IgG2b), α-Fba (Fructose bisphosphate aldolase) • 10E7E2 (IgG1), α-GPV-P3 (General peptide vaccine 3 from Phosphoglycerate kinase) • 9F2G5 (IgG2a), α-Pgk1 (Phosphoglycerate kinase) • 3H7E3 (IgG1), α-Met6 (Methyltetrahydropteroyltriglutamate)
# C. auris = assay: Passive transfer of mAbs in cyclophosphamide-immunosuppressed B6.129X1Elane mice, disseminated infection by C. auris; type: in vivo, Candida auris; details: 2×108 C. auris i.v.
# Protocol: An immunocompromised murine model of disseminated infection by C. auris was developed. To induce immunosuppression, Jackson B6.129X1Elane mice received a 200 mg/kg dose of cyclophosphamide (CY) by i.p. on day −3. Prolonged immunosuppression was maintained for 30 days by giving each animal a 200 mg/kg dose of CY by i.p. every 10 days after infection. On day 0, mice of different experimental groups were intravenously infected with 2×10^8 viable C. auris yeast cells.
# The preventive effect of peptide-specific mAbs, for example 7H6A2 and 1D4H5, and combinations thereof, for example 7H6A2+1D4H5, was examined by passive transfer experiments. Each mAb was appropriately diluted in DPBS to give a 40,000-100,000 ELISA titer against each corresponding specific peptide coated on the plate. For testing, mice received 0.5 ml of each mAb or 1 ml of two mAbs in combination (0.5 ml of each) intraperitoneally. Control mice received 0.5 ml of the DPBS diluents.
# Protective mAbs protect immunocompromised mice against disseminated infection by Candida auris: The possibility of using passive mAb immunotherapy in immunocompromised mice against disseminated candidiasis by C. auris. The protective effect of mAb 7H6A2, 1D4H5 or these two mAbs in combination against the disease in immunocompromised mice was examined by passive transfer experiments (FIG. 14). Mice received either mAb 7H6A2 or 1D4H5 or the two mAbs in combination had reduced CFUs in kidneys (FIG. 14A) and in brains (FIG. 14B) as compared with control mice.
molecule,measurement,setting,value
PAINVTSSSTVVAALEAA [FbaU2],specific antibody responses,[1],able to induce specific antibody responses
SSSTVVAAL [Fba4],specific antibody responses,[1],able to induce specific antibody responses
FAIPAINVTSSSTVVAALE [Fba3],protection against disseminated candidiasis caused by C. albicans,"C. albicans; FIG. 2, antigen-pulsed DC vaccine without CFA",good protective responses
same,CFUs in kidneys as compared to controls,C. albicans; FIG. 2 B and D,reduced or non-detectable CFUs
same,specific antibody responses,[1],able to induce specific antibody responses
same,survival,"[2]; FIG. 3A, i.v. challenge 1×10^6/mouse, up to 80 days",80%
same,live fungal cells (CFU) in kidneys as compared to controls,"[2]; FIG. 3B, p<0.001",significantly reduced live fungal cells
FWVNPDCGLKTR (CFWVNPDCGLKTR; (1)..(1) May or may not be present) [GPV-M1],coverage against medically important Candida spp,[3],able to provide broad coverage
AILGGSKVSDKI (CAILGGSKVSDKI) [GPV-P1],coverage against medically important Candida spp,[3],able to provide broad coverage
TTTIGSFPQTKDIR (CTTTIGSFPQTKDIR; (1)..(1) May or may not be present) [GPV-M2],coverage against medically important Candida spp,[3],able to provide broad coverage
IVIIGGGDTATVAKK (CIVIIGGGDTATVAKK; (1)..(1) May or may not be present) [GPV-P3],coverage against medically important Candida spp,[3],able to provide broad coverage
B1,Protection of adsorbed mAb,C. albicans 3153A,None
same,Protection,C. albicans 3153A,(80-100%)
same,Protection (grade word),C. albicans 3153A,High
same,Protection against C. auris,C. auris AR-0386,60-90%
same,Protection against C. auris (grade word),C. auris AR-0386,High
B2,Protection of adsorbed mAb,C. albicans 3153A,None
same,Protection,C. albicans 3153A,(80-90%)
same,Protection (grade word),C. albicans 3153A,High
same,CFUs in kidneys as compared with control mice,C. auris; FIG. 14A,reduced CFUs
same,CFUs in brains as compared with control mice,C. auris; FIG. 14B,reduced CFUs; also recorded: no CFU detected
same,Protection against C. auris,C. auris AR-0386,80-100%
same,Protection against C. auris (grade word),C. auris AR-0386,High
